For data set [1], the system named is HSV1. Briefly: Inhibition of HSV1 viral plaques on VERO cells. It counts as cell-based, Herpes Simplex Virus type 1. The settings on record: for MDI50 (dose inhibiting 50% of the viral plaques on VERO cells): HSV1; for Inhibition (%) of viral plaques with various lysozymes: percentage of the control ± standard deviation.
For data set [2], the system named is VERO cells. Kind of data set: Toxicity expressed as a minimum toxic dose on 50% of the cells. It is filed as cell-based, African green monkey. The protocol: It was carried out as Example 1 except that different amounts of bovine and human lactoferrin were added to the single layers of VERO cells infected with HSV1.
*Toxicity expressed as a minimum toxic dose on 50% of the cells.

For data set [3], the system named is HSV1. The settings on record: Current Microbiology 1984; cited from earlier work.

B1: Human lactoferrin: human lactoferrin; lactoferrin supplied by SIGMA (protein, UniProt P02788 20-710, looked up)
Lactotransferrin: GRRRSVQWCAVSQPEATKCFQWQRNMRKVRGPPVSCIKRDSPIQCIQAIAENRADAVTLDGGFIYEAGLAPYKLRPVAAEVYGTERQPRTHYYAVAVVKKGGSFQLNELQGLKSCHTGLRRTAGWNVPIGTLRPFLNWTGPPEPIEAAVARFFSASCVPGADKGQFPNLCRLCAGTGENKCAFSSQEPYFSYSGAFKCLRDGAGDVAFIRESTVFEDLSDEAERDEYELLCPDNTRKPVDKFKDCHLARVPSHAVVARSVNGKEDAIWNLLRQAQEKFGKDKSPKFQLFGSPSGQKDLLFKDSAIGFSRVPPRIDSGLYLGSGYFTAIQNLRKSEEEVAARRARVVWCAVGEQELRKCNQWSGLSEGSVTCSSASTTEDCIALVLKGEADAMSLDGGYVYTAGKCGLVPVLAENYKSQQSSDPDPNCVDRPVEGYLAVAVVRRSDTSLTWNSVKGKKSCHTAVDRTAGWNIPMGLLFNQTGSCKFDEYFSQSCAPGSDPRSNLCALCIGDEQGENKCVPNSNERYYGYTGAFRCLAENAGDVAFVKDVTVLQNTDGNNNEAWAKDLKLADFALLCLDGKRKPVTEARSCHLAMAPNHAVVSRMDKVERLKQVLLHQQAKFGRNGSDCPDKFCLFQSETKNLLFNDNTECLARLHGKTTYEKYLGPQYVAGITNLKKCSTSPLLEACEFLRK
As for B1, the “MDI50 (dose inhibiting 50% of the viral plaques on VERO cells)” value in data set [1] amounted to 0.25 mg/mL. Besides, the “MTD50 (minimum toxic dose on 50% of the cells)” value in data set [2] was 3 mg/mL.

B2: turkey lysozyme: turkey lysozyme (protein, UniProt P00703 19-147, looked up)
Lysozyme C: KVYGRCELAAAMKRLGLDNYRGYSLGNWVCAAKFESNFNTHATNRNTDGSTDYGILQINSRWWCNDGRTPGSKNLCNIPCSALLSSDITASVNCAKKIASGGNGMNAWVAWRNRCKGTDVHAWIRGCRL
As for B2, the “Inhibition (%) of viral plaques with various lysozymes” value in data set [1] (0.5 mg/ml) was 10 ± 3%; in data set [1] (1 mg/ml) it was 45 ± 5%; in data set [1] (2 mg/ml), 55 ± 6%; in data set [1] (4 mg/ml) it was 68 ± 5%; in data set [1] (6 mg/ml), 80 ± 4%; in data set [1] (8 mg/ml), 89 ± 5%. Further, the “antiviral / anti-herpetic (HSV1) activity of lysozymes” value in data set [3] was “anti-herpetic (HSV1) activity”.

B3: Bovine lactoferrin: bovine lactoferrin; lactoferrin supplied by SIGMA (protein, UniProt P24627 20-708, looked up)
Lactotransferrin: APRKNVRWCTISQPEWFKCRRWQWRMKKLGAPSITCVRRAFALECIRAIAEKKADAVTLDGGMVFEAGRDPYKLRPVAAEIYGTKESPQTHYYAVAVVKKGSNFQLDQLQGRKSCHTGLGRSAGWIIPMGILRPYLSWTESLEPLQGAVAKFFSASCVPCIDRQAYPNLCQLCKGEGENQCACSSREPYFGYSGAFKCLQDGAGDVAFVKETTVFENLPEKADRDQYELLCLNNSRAPVDAFKECHLAQVPSHAVVARSVDGKEDLIWKLLSKAQEKFGKNKSRSFQLFGSPPGQRDLLFKDSALGFLRIPSKVDSALYLGSRYLTTLKNLRETAEEVKARYTRVVWCAVGPEEQKKCQQWSQQSGQNVTCATASTTDDCIVLVLKGEADALNLDGGYIYTAGKCGLVPVLAENRKSSKHSSLDCVLRPTEGYLAVAVVKKANEGLTWNSLKDKKSCHTAVDRTAGWNIPMGLIVNQTGSCAFDEFFSQSCAPGADPKSRLCALCAGDDQGLDKCVPNSKEKYYGYTGAFRCLAEDVGDVAFVKNDTVWENTNGESTADWAKNLNREDFRLLCLDGTRKPVTEAQSCHLAVAPNHAVVSRSDRAAHVKQVLLHQQALFGKNGKNCPDKFCLFKSETKNLLFNDNTECLAKLGGRPTYEEYLGTEYVTAIANLKKCSTSPLLEACAFLTR
As to B3, the “MDI50 (dose inhibiting 50% of the viral plaques on VERO cells)” value in data set [1] was found to be 0.25 mg/mL. In addition, the “MTD50 (minimum toxic dose on 50% of the cells)” value in data set [2] was found to be 2 mg/mL.

B4: human lysozyme: human lysozyme (protein, UniProt P61626 19-148, looked up)
Lysozyme C: KVFERCELARTLKRLGMDGYRGISLANWMCLAKWESGYNTRATNYNAGDRSTDYGIFQINSRYWCNDGKTPGAVNACHLSCSALLQDNIADAVACAKRVVRDPQGIRAWVAWRNRCQNRDVRQYVQGCGV
With B4, the “Inhibition (%) of viral plaques with various lysozymes” value is recorded as 18 ± 3% in data set [1] (0.5 mg/ml); 45 ± 3% in data set [1] (1 mg/ml); 59 ± 4% in data set [1] (2 mg/ml); 70 ± 4% in data set [1] (4 mg/ml); 79 ± 6% in data set [1] (6 mg/ml); 90 ± 5% in data set [1] (8 mg/ml). The “antiviral / anti-herpetic (HSV1) activity of lysozymes” value in data set [3] is “anti-herpetic (HSV1) activity”.

Values taken from patent US6329339A, “Pharmaceutical antiviral composition comprising glycyrrhizic acid and at least one protein endowed with antiviral activity” (priority 1997, dated 2001).
